From patent US10272135B2, “Apolipoprotein O and fragments thereof for inducing apoptosis in a cancerous cell” (INSERM (INSTITUT NATIONAL DE LA SANTÉ ET DE LA RECHERCHE …, priority 2014, dated 2019) come the findings set out here.

In one test the test system is H9c2 cardiac myoblasts. Put plainly: Measurement of O2 consumption (Oroboros Oxygraph-2k) in cardiac myoblasts. Format: cell-based. From the text: After ethical committee approval, all patients in this study gave written consent for sample collection and molecular analysis prior to inclusion. Patients were carefully selected by physicians from the Department of Cardiology, Toulouse University Hospital, prior to coronary by-pass surgery. Bioinformatics. Microarray expression data from human heart samples were downloaded from the GEO repository (GSE1145). This series consisted of 107 myocardial samples collected from patients undergoing cardiac transplantation whose failure arises from different etiologies (e.g. idiopathic dilated cardiomyopathy, ischemic cardiomyopathy, valvular cardiomyopathy, and hypertrophic cardiomyopathy) and from “normal” organ donors whose hearts cannot be used for transplants. Arrays were intensity normalized and hierarchical clustering (average group linkage, Pearson correlation, threshold r=0.8) was applied to identify groups of co-expressed genes. ApoO expression levels were plotted for the 107 human hearts tested and used to define relevant molecular pathways using both Toppgene and Ingenuity Pathway Analysis (Ingenuity systems, Redwood City, Calif., USA). ApoO subcellular localization was predicted using Mitopred, mitoprot and YLoc. Animals: All animal Studies followed the INSERM Institute Animal Facility guidelines and were approved by the animal care committees of the INSERM I2MC UMR 1048. All animal procedures were performed according to the guidelines of the French Ministry of Agriculture. Animals were housed at the Toulouse I2MC animal facility in a room lit 12 h per day (6 AM-6 PM) at an ambient temperature of 22+/−1° C. Construction of ApoO Expression Vectors To overexpress human ApoO (pTT-ApoO), the ApoO coding sequence was amplified using primers hApoO5BamPTT (SEQ ID NO: 2) and hApoO3BamPTT (SEQ ID NO: 3) and cloned into the BamH1 site of pTT expression vector. pSNAP-ApoO was generated by PCR amplification of pTT-ApoO using primers SnapApoEcorV-F (SEQ ID NO: 4) and SnapApoEcorV-R (SEQ ID NO: 5) and cloned into the EcoRV site of pSNAP-Tag® (Ozyme, Saint-Quentin-en-Yvelines, France). pGEX2T-ApoO was constructed by PCR amplification of pTT-ApoO using hApoOpGEX1FBam (SEQ ID NO: 6) and hApoOpGEX1RSma (SEQ ID NO: 7) and cloned into the Bam HI/Sma I site of pGEX2T (Promega, Charbonnières-les-Bains). All primers used in this work were synthesized by Eurogentec France (Angers). All restriction enzymes used were from New England Biolabs (Ozyme, Saint-Quentin-en-Yvelines). All ApoO sequences within the expression vectors were verified by DNA double strand sequencing using ABI PRISM®BigDye™ Terminator version 3.1 Ready reaction cycle sequencing kit (Life Technologies SAS, Villebon sur Yvette) and loaded on an ABI 3130XL DNA sequencing instrument (Life Technologies SAS, Villebon sur Yvette). Cell Culture and Tranfection of H9C2 Cardic Myoblasts H9c2 were obtained from the European Collection of Cell Cultures (Salisbury, England). H9c2 cells were cultured in Dulbecco's modified Eagle medium (Life Technologies SAS, Villebon sur Yvette) adjusted to contain 1.5 g/liter sodium bicarbonate and supplemented with antibiotic-antimycotic solution (Life Technologies SAS, Villebon sur Yvette) and 10% fetal bovine serum (FBS, AbCys s.a., Paris). Cells were plated on 10-cm diameter tissue culture dish and grown in a 5% CO2 incubator at 37° C. with saturating humidity with medium changes every 2 days. […]

A further test deals with U87 cells. In words: Caspase-3 activity in U87 glioblastoma transfectants. It is filed as cell-based, human. To be noted: U87 pTT-ApoO vs control pTT, 100 μM palmitate overnight (FIG. 13). Here is the method:
U87 were obtained from the European Collection of Cell Cultures (Salisbury, England). p y, g) U87 cells were cultured in Dulbecco's modified Eagle medium (Life Technologies SAS, Villebon sur Yvette) adjusted to contain 1.5 g/liter sodium bicarbonate and supplemented with antibiotic-antimycotic solution (Life Technologies SAS, Villebon sur Yvette) and 10% fetal bovine serum (FBS, AbCys s.a., Paris). Cells were plated on 10-cm diameter tissue culture dish and grown in a 5% CO2 incubator at 37° C. with saturating humidity with medium changes every 2 days. U87 glioblastomas were stably transfected by electroporation and pools of transfectants were selected as previously described (Smih et al 2002). Western Blot Analysis Cultured cells were resuspended in RIPA buffer (0.15 M sodium chloride, 1% NP-40, 0.5% sodium deoxycholate, 0.1% SDS, 50 mM Tris, pH 8) in the presence of a mix protease inhibitors. The lysate was sonicated 6 s and centrifuged at 6,500 g for 10 min. […] Protein immune-band densitometry was quantified with the ImageJ software. […] Caspase-3 activities were measured using the Caspase-3 Substrate IV Fluorogenic substate (VWR, Strasbourg) and a Victor™ X5 2030 multilabel reader (Perkin Elmer, Courtaboeuf). […]
The inventors measured and compared the Caspase-3 activity in • control U87 cells (pTT); and • U87 transfectants cells overexpressing ApoO (pTT-ApoO).

B1: ApoO: 198-amino acid apolipoprotein, SEQ ID NO: 1; tested by overexpression from expression vectors or transgene (protein, listed as Homo sapiens)
chain: MFKVIQRSVGPASLSLLTFKVYAAPKKDSPPKNSVKVDELSLYSVPEGQSKYVEEARSQLEESISQLRHYCEPYTTWCQETYSQTKPKMQSLVQWGLDSYDYLQNAPPGFFPRLGVIGFAGLIGLLLARGSKIKKLVYPPGFMGLAASLYYPQQAIVFAQVSGERLYDWGLRGYIVIEDLWKENFQKPGNVKNSPGTK
With B1, in the test with H9c2 cardiac myoblasts (ApoO cells vs control cardiac myoblasts (FIG. 4A)), the basal oxygen consumption entry is “two-fold increase”. Moreover, the “respiration coupling (RC)” value in the test on H9c2 cardiac myoblasts (ApoO cells vs control, CCCP / oligomycin oxygen consumption (FIG. 4C)) is recorded as “decreases”. Also, in the test on U87 cells, the Caspase-3 activity result is given as “significant increase”.
